Assay results taken from the Human Domainome abundance scans (Beltran et al. 2025).

B1: POU domain, class 5, transcription factor 1, residues 134 to 212; numbered along this chain, Q01860 (parent)
chain: EESQDIKALQKELEQFAKLLKQKRITLGYTQADVGLTLGVLFGKVFSQTTICRFEALQLSFKNMCKLRPLLQKWVEEAD

Variants of: B1
Assay: abundance fitness (aPCA) (normalised: wild type 0, dead -1); higher = more abundant; growth selection in yeast, the domain comes from the species named
Settings: Homo sapiens

Abundance fitness of substitutions, site by site:
N63: D -0.093 | L -0.336 | V -0.305 | F -0.2 | G -0.314 | H -0.183 | E 0.126 | R 0.037 | A 0.045 | C -0.31 | S 0.299 | T -0.303 | Q -0.236 | M -0.088 | K 0.172
Q48: G 0.24 | A 0.162 | M 0.348 | R 0.126 | L -0.435 | P 0.097 | F -0.343 | D 0.164 | K 0.079 | E 0.484 | S 0.208
V45: F -0.15 | L -0.338 | R 0.036 | C -0.101 | A 0.127 | S 0.012 | G -0.153 | N 0.001 | T -0.005 | K 0.085 | Q 0.044 | D -0.28 | P 0.12 | M -0.122 | H 0.013 | W -0.143 | E 0.16
A56: V -0.464 | N 0.067 | G -0.06 | R -0.492 | H -0.245 | M 0.159 | C -0.098 | S -0.002 | D 0.18 | E 0.067 | W -0.812 | Q 0.059 | K -0.197 | P -0.345 | T -0.243
G39: R -0.318 | A -0.534 | S -0.006 | D -0.852 | T -0.613 | K -0.187 | W -0.712 | V -0.85 | E -0.469 | P -0.325 | H -0.441
F46: T 0.025 | W -0.398 | L 0.211 | M 0.023 | G -0.714 | A -0.147 | R -0.429 | C 0.311 | S -0.553 | D 0.136 | E -0.293 | V 0.411 | K -0.17 | I 0.107 | P 0.029
F54: S -0.562 | R -0.621 | E -0.828 | Q -0.891 | A -1.13 | C -0.5 | K -0.662 | W -0.797 | P -0.719 | T 0.078 | M -0.535 | V -0.625 | G -0.695
L59: M -0.054 | S -0.453 | N 0.124 | T -0.533 | V -0.7 | R -0.561 | P -0.312 | A -0.81 | C 0.009 | E 0.101 | G -0.432
T37: M 0.116 | S 0.153 | F 0.319 | Y -0.193 | G 0.296 | L -0.283 | H 0.162 | I -0.093 | Q 0.394 | K 0.082 | R 0.339 | P -0.621
Q58: W -0.179 | S -0.307 | T -0.097 | A -0.5 | E 0.126 | L -0.43 | R -0.31 | K -0.035 | D -0.03 | G -0.573
L41: T -0.04 | R -0.345 | Q 0.048 | G -0.934 | D -0.244 | A -0.695 | W 0.046 | V -0.329 | E -0.224
K44: H -0.181 | P -0.3 | V -0.441 | E 0.016 | G -0.382 | Y -0.489 | S -0.805 | N -0.26 | Q 0.018 | M -0.374 | D -0.262 | C -0.381
I51: V -0.48 | T -0.338 | G -0.25 | K -0.067 | A -0.916 | R -0.575
S47: T -0.169 | L -0.756 | F -0.094 | Q -0.196 | A -0.379 | D -0.323 | K -0.597 | E -0.228 | R -0.469
F61: Q -0.111
